# Source: US20220259288A1 (LA JOLLA INSTITUTE FOR ALLERGY AND IMMUNOLOGY, published 2022)
# Substitutions are numbered along the chain they refer to.
# T1: HLA-DP DPB1*02:01 (human)
# T1 chain 1: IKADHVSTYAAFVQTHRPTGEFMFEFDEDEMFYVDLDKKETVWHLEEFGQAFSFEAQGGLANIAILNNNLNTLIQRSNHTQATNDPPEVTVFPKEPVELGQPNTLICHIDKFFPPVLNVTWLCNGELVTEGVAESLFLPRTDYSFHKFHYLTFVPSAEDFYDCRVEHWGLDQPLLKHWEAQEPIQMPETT
# T1 chain 2: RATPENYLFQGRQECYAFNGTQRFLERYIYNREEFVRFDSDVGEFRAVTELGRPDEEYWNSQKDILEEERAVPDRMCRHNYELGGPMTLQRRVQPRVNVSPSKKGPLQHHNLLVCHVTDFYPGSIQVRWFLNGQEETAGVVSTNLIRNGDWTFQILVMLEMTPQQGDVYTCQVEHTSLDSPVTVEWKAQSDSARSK
# T2: HLA-DP DPB1*04:01 (human)
# T2 chain 1: T1 chain 1
# T2 chain 2: T1 chain 2 with V36A, D55A, E56A, E69K
# B1: ApoB100 peptide 3563.0012 (peptide)
# peptide: LSQLQTYMIQFDQYI
# B2: ApoB100 peptide 3563.0009 (peptide)
# peptide: IKHIYAISSAALSAS
# notes: also called p9; P9
# B3: ApoB100 peptide 3563.0005 (peptide)
# peptide: TLTAFGFASADLIEI
# B4: ApoB100 peptide 3563.0015 (peptide)
# peptide: LIINWLQEALSSASL
# B5: ApoB100 peptide 3563.0023 (peptide)
# peptide: ILFSYFQDLVITLPF
# B6: ApoB100 peptide 3563.0003 (peptide)
# peptide: QELLDIANYLMEQIQ
# B7: ApoB100 peptide 3563.0020 (peptide)
# peptide: RGLKLATALSLSNKF
# B8: ApoB100 peptide 3563.0028 (peptide)
# peptide: KIVSLIKNLLVALKD
# B9: ApoB100 peptide 3563.0008 (peptide)
# peptide: VGSKLIVAMSSWLQK
# B10: ApoB100 peptide 3563.0018 (peptide)
# peptide: SLFFSAQPFEITAST
# notes: also called p18
# B11: ApoB100 peptide 3563.0022 (peptide)
# peptide: YKKLRTSSFALNLPT
# B12: ApoB100 peptide 3563.0014 (peptide)
# peptide: HVKHFVINLIGDFEV
# B13: ApoB100 peptide 3563.0028 (peptide)
# peptide: KIVSLIKNLLVALKD
# B14: ApoB100 peptide 3563.0017 (peptide)
# peptide: LEVLNFDFQANAQLS
# notes: agrees with the claims
# B15: ApoB100 peptide 3563.0007 (peptide)
# peptide: VEFVTNMGIIIPDFA
# notes: agrees with the claims
# B16: ApoB100 peptide 3563.0030 (peptide)
# peptide: FLIYITELLKKLQST
# B17: ApoB100 peptide 3563.0027 (peptide)
# peptide: QIHQYIMALREEYFD
# B18: ApoB100 peptide 3563.0004 (peptide)
# peptide: DKRLAAYLMLMRSPS
# B19: ApoB100 peptide 3563.0021 (peptide)
# peptide: EGHLRFLKNIILPVY
# B20: ApoB100 peptide 3563.0006 (peptide)
# peptide: FLHYIFMENAFELPT
# B21: ApoB100 peptide 3563.0015 (peptide)
# peptide: LIINWLQEALSSASL
# notes: agrees with the claims
# B22: ApoB100 peptide 3563.0016 (peptide)
# peptide: GKLYSILKIQSPLFT
# B23: ApoB100 peptide 3563.0019 (peptide)
# peptide: GKIDFLNNYALFLSP
# B24: ApoB100 peptide 3563.0029 (peptide)
# peptide: IDLSIQNYHTFLIYI
# B25: ApoB100 peptide 3563.0024 (peptide)
# peptide: QEVFKAIQSLKTTEV
# B26: ApoB100 peptide 3563.0003 (peptide)
# peptide: QELLDIANYLMEQIQ
# B27: ApoB100 peptide 3563.0012 (peptide)
# peptide: LSQLQTYMIQFDQYI
# B28: ApoB100 peptide 3563.0008 (peptide)
# peptide: VGSKLIVAMSSWLQK
# notes: agrees with the claims
# B29: ApoB100 peptide 3563.0005 (peptide)
# peptide: TLTAFGFASADLIEI
# B30: ApoB100 peptide 3563.001 (peptide)
# peptide: PALLALLALPALLLL
# notes: label printed as 3563.001
# Biological target: T3, HLA-DRB1*15:01 (human)
# T3 construct: MHC class II molecule; how it was prepared for the assay is not described
# Test: HLA class II competition binding assay
row,IC50 [nM],Binder
1,1.1,B1
2,1.1,B2
3,25,B3

# Biological target: T4, HLA-DRB1*04:05 (human)
# T4 construct: MHC class II molecule; how it was prepared for the assay is not described
# Test: HLA class II competition binding assay
row,IC50 [nM],Binder
1,69,B1

# Biological target: T5, HLA-DRB1*04:01 (human)
# T5 construct: MHC class II molecule; how it was prepared for the assay is not described
# Test: HLA class II competition binding assay
row,IC50 [nM],Binder
1,19,B1

# Biological target: T6, HLA-DRB4*01:01 (human)
# T6 construct: MHC class II molecule; how it was prepared for the assay is not described
# Test: HLA class II competition binding assay
row,IC50 [nM],Binder
1,29,B1
2,12,B4

# Biological target: T7, HLA-DRB3*01:01 (human)
# T7 construct: MHC class II molecule; how it was prepared for the assay is not described
# Test: HLA class II competition binding assay
row,IC50 [nM],Binder
1,71,B5
2,1110,B1
3,88,B6
4,99,B3

# Biological target: T8, HLA-DRB1*01:01 (human)
# T8 construct: MHC class II molecule; how it was prepared for the assay is not described
# Test: HLA class II competition binding assay
row,IC50 [nM],Binder
1,157,B1
2,60,B3

# Biological target: T9, HLA-DRB1*12:01 (human)
# T9 construct: MHC class II molecule; how it was prepared for the assay is not described
# Test: HLA class II competition binding assay
row,IC50 [nM],Binder
1,3360,B1
2,27200,B3

# Biological target: T10, HLA-DRB1*13:02 (human)
# T10 construct: MHC class II molecule; how it was prepared for the assay is not described
# Test: HLA class II competition binding assay
row,IC50 [nM],Binder
1,35,B1
2,12,B4
3,1.1,B7
4,6.1,B3

# Biological target: T11, HLA-DRB3*02:02 (human)
# T11 construct: MHC class II molecule; how it was prepared for the assay is not described
# Test: HLA class II competition binding assay
row,IC50 [nM],Binder
1,4660,B1
2,3.4,B2
3,18100,B3

# Biological target: T12, HLA-DRB1*09:01 (human)
# T12 construct: MHC class II molecule; how it was prepared for the assay is not described
# Test: HLA class II competition binding assay
row,IC50 [nM],Binder
1,425,B1
2,28,B3

# Biological target: T13, HLA-DRB5*01:01 (human)
# T13 construct: MHC class II molecule; how it was prepared for the assay is not described
# Test: HLA class II competition binding assay
row,IC50 [nM],Binder
1,826,B1
2,14,B8
3,276,B3
4,23,B9

# Biological target: T14, HLA-DRB1*03:01 (human)
# T14 construct: MHC class II molecule; how it was prepared for the assay is not described
# Test: HLA class II competition binding assay
row,IC50 [nM],Binder
1,20500,B1
2,16400,B3

# Biological target: T15, HLA-DRB1*07:01 (human)
# T15 construct: MHC class II molecule; how it was prepared for the assay is not described
# Test: HLA class II competition binding assay
row,IC50 [nM],Binder
1,14,B1
2,77,B2
3,33,B3

# Biological target: T16, HLA-DQ DQB1*06:02 (human)
# T16 construct: its preparation is not described
# Test: competition assay
row,IC50 [nM],Binder
1,895,B10

# Biological target: T17, HLA-DP DPB1*14:01 (human)
# T17 construct: its preparation is not described
# Test: competition assay
row,IC50 [nM],Binder
1,126,B10

# Biological target: T1, HLA-DP DPB1*02:01
# Test: competition assay
row,IC50 [nM],Binder
1,3.3,B11
2,58,B12
3,657,B13
4,86,B14
5,12,B15
6,96,B16
7,80,B17
8,1680,B18
9,61,B19
10,40,B20
11,16300,B21
12,9070,B22
13,456,B23
14,23200,B24
15,200,B25
16,11,B10
17,1780,B26
18,576,B27
19,128,B28

# Biological target: T2, HLA-DP DPB1*04:01
# Test: competition assay
row,IC50 [nM],Binder
1,2.1,B11
2,7,B12
3,78,B13
4,191,B14
5,215,B16
6,817,B17
7,372,B18
8,32,B20
9,6190,B21
10,2100,B22
11,25000,B24
12,16,B25
13,490,B29
14,2580,B26
15,14000,B30
16,951,B27
17,89,B28

# Biological target: T18, HLA-DP DPB1*05:01 (human)
# T18 construct: its preparation is not described
# Test: competition assay
row,IC50 [nM],Binder
1,1480,B10
